Data from article PMC10360031.

Assays:
[1] = biological target: recombinant human Vim (human) (UniProt P08670); experiment: quartz crystal microbalance with dissipation (QCM-D); pH 7.4
[2] = biological target: recombinant human Vim (human) (UniProt P08670); experiment: quartz crystal microbalance with dissipation (QCM-D)
[3] = biological target: recombinant human Vim (human) (UniProt P08670); experiment: AFM single-molecule force spectroscopy

Chain of recombinant human Vim (human) (P08670 whole entry): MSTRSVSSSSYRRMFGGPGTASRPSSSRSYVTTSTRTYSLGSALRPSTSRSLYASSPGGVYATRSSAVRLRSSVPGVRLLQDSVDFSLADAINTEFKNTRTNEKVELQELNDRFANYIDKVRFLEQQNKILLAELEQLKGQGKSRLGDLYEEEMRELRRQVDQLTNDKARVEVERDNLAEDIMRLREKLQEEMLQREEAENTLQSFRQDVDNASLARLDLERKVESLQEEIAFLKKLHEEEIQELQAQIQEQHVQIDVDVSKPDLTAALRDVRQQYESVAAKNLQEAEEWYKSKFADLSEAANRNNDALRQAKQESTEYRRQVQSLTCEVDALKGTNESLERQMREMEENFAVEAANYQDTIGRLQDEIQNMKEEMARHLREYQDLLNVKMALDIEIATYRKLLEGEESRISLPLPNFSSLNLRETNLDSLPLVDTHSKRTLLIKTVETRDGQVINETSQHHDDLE

In the case of “wild-strain SARS-CoV-2 spike protein RBD (from UniProt P0DTC2) (domain or fragment)”, the adsorbed amount [1] is reported as 1 mg m^–2, the Ka (equilibrium adsorption constant), fraction I [2] is reported as 0.0011 cm and the Ka (equilibrium adsorption constant), fraction II [2] is reported as 0.46 cm. For the same substance, the Keq, fraction I [2] was 4.7e+06 L mol^–1, the Keq, fraction II [2] was 9.2e+08 L mol^–1 and the desorption time, loosely bound fraction [2] was 200 s. It also gave a desorption time, tightly bound fraction [2] greater than 10000 s, a kd' (desorption constant), fraction I [2] of 0.063 s^–1 and a kd' (desorption constant), fraction II [2] of 0.00015 s^–1. It also gave a binding probability (specific adhesion events) (% of force curves) [3] of less than 20 and a rupture force at 5 um/s [3] of 58 pN.
